Values quoted from earlier work, collected in PMC2996745.

Molecular target: VEGFR2 (flk-1) (Homo sapiens) (UniProt P35968)
Chain of UniProt P35968 (P35968 20-1356): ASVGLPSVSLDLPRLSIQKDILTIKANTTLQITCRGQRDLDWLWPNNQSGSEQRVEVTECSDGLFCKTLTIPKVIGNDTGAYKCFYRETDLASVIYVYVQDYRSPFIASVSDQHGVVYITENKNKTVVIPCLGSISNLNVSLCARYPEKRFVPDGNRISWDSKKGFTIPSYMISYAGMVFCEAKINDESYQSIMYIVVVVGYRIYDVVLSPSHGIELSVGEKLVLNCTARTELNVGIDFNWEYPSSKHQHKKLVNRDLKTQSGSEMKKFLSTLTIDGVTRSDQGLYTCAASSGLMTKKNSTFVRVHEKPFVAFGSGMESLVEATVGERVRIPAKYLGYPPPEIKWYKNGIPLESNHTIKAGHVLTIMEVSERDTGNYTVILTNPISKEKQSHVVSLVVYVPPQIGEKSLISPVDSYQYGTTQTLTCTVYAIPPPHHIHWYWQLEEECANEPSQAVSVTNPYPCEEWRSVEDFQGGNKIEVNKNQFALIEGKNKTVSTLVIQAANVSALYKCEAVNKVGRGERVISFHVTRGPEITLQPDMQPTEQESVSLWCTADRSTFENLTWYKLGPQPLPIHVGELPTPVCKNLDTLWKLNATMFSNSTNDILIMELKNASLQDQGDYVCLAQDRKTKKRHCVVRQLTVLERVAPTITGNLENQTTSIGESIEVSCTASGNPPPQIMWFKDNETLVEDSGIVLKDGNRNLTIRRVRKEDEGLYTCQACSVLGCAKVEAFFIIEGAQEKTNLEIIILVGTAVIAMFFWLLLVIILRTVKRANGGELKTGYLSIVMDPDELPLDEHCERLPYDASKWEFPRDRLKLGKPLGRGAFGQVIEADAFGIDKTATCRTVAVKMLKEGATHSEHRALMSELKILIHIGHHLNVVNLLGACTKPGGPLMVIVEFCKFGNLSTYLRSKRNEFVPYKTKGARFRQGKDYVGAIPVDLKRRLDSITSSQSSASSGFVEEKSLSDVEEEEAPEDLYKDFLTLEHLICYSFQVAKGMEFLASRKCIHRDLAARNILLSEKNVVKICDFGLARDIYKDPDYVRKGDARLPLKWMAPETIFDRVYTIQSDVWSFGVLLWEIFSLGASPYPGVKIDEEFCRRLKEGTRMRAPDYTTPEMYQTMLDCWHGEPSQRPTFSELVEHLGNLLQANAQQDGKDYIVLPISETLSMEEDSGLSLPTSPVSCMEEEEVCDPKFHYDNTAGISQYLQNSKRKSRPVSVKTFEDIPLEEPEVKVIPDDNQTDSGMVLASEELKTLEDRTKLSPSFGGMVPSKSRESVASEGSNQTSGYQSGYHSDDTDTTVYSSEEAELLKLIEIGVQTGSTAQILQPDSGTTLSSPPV

Kd: 0.1 nM
Substance: VEGF-A (from UniProt P15692)
